Legend:
[1] = target: T1, HIF-1α 1-350;HIF-1β (ARNT) 1-474 (human?;human?, UniProt Q16665;P27540 1-350;1-474, |); assay: EMSA; EMSA: Tris-HCl (concentration and pH not in material), 50 mM KCl, 50 mM NaCl, 5 mM DTT, 1 mM MgCl2, 1 mM EDTA, 10% glycerol, 5 µg BSA, 25 ng poly dI-dC; 30 min
[2] = target: HIF-2α (EPAS1) 1-351;HIF-1β (ARNT) 1-474 (human?;human?, UniProt Q99814;P27540 1-351;1-474, |); assay: as above
[3] = target: T1, HIF-1α 1-350;HIF-1β (ARNT) 1-474; assay: competition; unlabelled DNA titrated against labelled probe N1 (EMSA); EMSA: Tris-HCl (concentration and pH not in material), 50 mM KCl, 50 mM NaCl, 5 mM DTT, 1 mM MgCl2, 1 mM EDTA, 10% glycerol, 5 µg BSA, 25 ng poly dI-dC; 30 min

B1: EMSA HRE probe (human EPO enhancer) (dsDNA)
DNA 1: GGCTGGGCCTACGTGCTGTCTCACACAGCC
DNA 2: GGCTGTGTGAGACAGCACGTAGGCCCAGCC
[1]
  binding result: binds
[2]
  binding result: binds

B2: unlabelled HRE competitor DNA (dsDNA)
DNA 1: B1 DNA 1
DNA 2: B1 DNA 2
[3]
  binding result: binds

— paper PMC3715890
